In paper PMC11574045, “A cofactor-induced repressive type of transcription factor condensation can be induced by synthetic peptides to suppress tumorigenesis” (The EMBO Journal, 2024):

B1: BANP (protein, UniProt Q8N9N5 1-519, looked up)
Protein BANP: MMSEHDLADVVQIAVEDLSPDHPVVLENHVVTDEDEPALKRQRLEINCQDPSIKTICLRLDSIEAKLQALEATCKSLEEKLDLVTNKQHSPIQVPMVAGSPLGATQTCNKVRCVVPQTTVILNNDRQNAIVAKMEDPLSNRAPDSLENVISNAVPGRRQNTIVVKVPGQEDSHHEDGESGSEASDSVSSCGQAGSQSIGSNVTLITLNSEEDYPNGTWLGDENNPEMRVRCAIIPSDMLHISTNCRTAEKMALTLLDYLFHREVQAVSNLSGQGKHGKKQLDPLTIYGIRCHLFYKFGITESDWYRIKQSIDSKCRTAWRRKQRGQSLAVKSFSRRTPNSSSYCPSEPMMSTPPPASELPQPQPQPQALHYALANAQQVQIHQIGEDGQVQVGHLHIAQVPQGEQVQITQDSEGNLQIHHVGQDGQLLEATRIPCLLAPSVFKASSGQVLQGAQLIAVASSDPAAAGVDGSPLQGSDIQVQYVQLAPVSDHTAGAQTAEALQPTLQPEMQLEHGAIQIQ
B2: PROX1 (protein, UniProt P48437 1-737, looked up)
Prospero homeobox protein 1: MPDHDSTALLSRQTKRRRVDIGVKRTVGTASAFFAKARATFFSAMNPQGSEQDVEYSVVQHADGEKSNVLRKLLKRANSYEDAMMPFPGATIISQLLKNNMNKNGGTEPSFQASGLSSTGSEVHQEDICSNSSRDSPPECLSPFGRPTMSQFDVDRLCDEHLRAKRARVENIIRGMSHSPSVALRGNENEREMAPQSVSPRESYRENKRKQKLPQQQQQSFQQLVSARKEQKREERRQLKQQLEDMQKQLRQLQEKFYQVYDSTDSENDEDGDLSEDSMRSEILDARAQDSVGRSDNEMCELDPGQFIDRARALIREQEMAENKPKREGSNKERDHGPNSLQPEGKHLAETLKQELNTAMSQVVDTVVKVFSAKPSRQVPQVFPPLQIPQARFAVNGENHNFHTANQRLQCFGDVIIPNPLDTFGSVQMPSSTDQTEALPLVVRKNSSEQSASGPATGGHHQPLHQSPLSATAGFTTPSFRHPFPLPLMAYPFQSPLGAPSGSFSGKDRASPESLDLTRDTTSLRTKMSSHHLSHHPCSPAHPPSTAEGLSLSLIKSECGDLQDMSDISPYSGSAMQEGLSPNHLKKAKLMFFYTRYPSSNMLKTYFSDVKFNRCITSQLIKWFSNFREFYYIQMEKYARQAINDGVTSTEELSITRDCELYRALNMHYNKANDFEVPERFLEVAQITLREFFNAIIAGKDVDPSWKKAIYKVICKLDSEVPEIFKSPNCLQELLHE
B3: PRDM16 (protein, UniProt Q9HAZ2 1-1276, looked up)
Histone-lysine …: MRSKARARKLAKSDGDVVNNMYEPNRDLLASHSAEDEAEDSAMSPIPVGPPSPFPTSEDFTPKEGSPYEAPVYIPEDIPIPADFELRESSIPGAGLGVWAKRKMEAGERLGPCVVVPRAAAKETDFGWEQILTDVEVSPQEGCITKISEDLGSEKFCVDANQAGAGSWLKYIRVACSCDDQNLTMCQISEQIYYKVIKDIEPGEELLVHVKEGVYPLGTVPPGLDEEPTFRCDECDELFQSKLDLRRHKKYTCGSVGAALYEGLAEELKPEGLGGGSGQAHECKDCERMFPNKYSLEQHMVIHTEEREYKCDQCPKAFNWKSNLIRHQMSHDSGKRFECENCVKVFTDPSNLQRHIRSQHVGARAHACPDCGKTFATSSGLKQHKHIHSTVKPFICEVCHKSYTQFSNLCRHKRMHADCRTQIKCKDCGQMFSTTSSLNKHRRFCEGKNHYTPGGIFAPGLPLTPSPMMDKAKPSPSLNHASLGFNEYFPSRPHPGSLPFSTAPPTFPALTPGFPGIFPPSLYPRPPLLPPTSLLKSPLNHTQDAKLPSPLGNPALPLVSAVSNSSQGTTAAAGPEEKFESRLEDSCVEKLKTRSSDMSDGSDFEDVNTTTGTDLDTTTGTGSDLDSDVDSDPDKDKGKGKSAEGQPKFGGGLAPPGAPNSVAEVPVFYSQHSFFPPPDEQLLTATGAAGDSIKAIASIAEKYFGPGFMGMQEKKLGSLPYHSAFPFQFLPNFPHSLYPFTDRALAHNLLVKAEPKSPRDALKVGGPSAECPFDLTTKPKDVKPILPMPKGPSAPASGEEQPLDLSIGSRARASQNGGGREPRKNHVYGERKLGAGEGLPQVCPARMPQQPPLHYAKPSPFFMDPIYSRVEKRKVTDPVGALKEKYLRPSPLLFHPQMSAIETMTEKLESFAAMKADSGSSLQPLPHHPFNFRSPPPTLSDPILRKGKERYTCRYCGKIFPRSANLTRHLRTHTGEQPYRCKYCDRSFSISSNLQRHVRNIHNKEKPFKCHLCNRCFGQQTNLDRHLKKHEHENAPVSQHPGVLTNHLGTSASSPTSESDNHALLDEKEDSYFSEIRNFIANSEMNQASTRTEKRADMQIVDGSAQCPGLASEKQEDVEEEDDDDLEEDDEDSLAGKSQDDTVSPAPEPQAAYEDEEDEEPAASLAVGFDHTRRCAEDHEGGLLALEPMPTFGKGLDLRRAAEEAFEVKDVLNSTLDSEALKHTLCRQAKNQAYAMMLSLSEDTPLHTPSQGSLDAWLKVTGATSESGAFHPINHL
B4: PRMT2 (protein, UniProt P55345 1-433, looked up)
Protein arginine …: MATSGDCPRSESQGEEPAECSEAGLLQEGVQPEEFVAIADYAATDETQLSFLRGEKILILRQTTADWWWGERAGCCGYIPANHVGKHVDEYDPEDTWQDEEYFGSYGTLKLHLEMLADQPRTTKYHSVILQNKESLTDKVILDVGCGTGIISLFCAHYARPRAVYAVEASEMAQHTGQLVLQNGFADIITVYQQKVEDVVLPEKVDVLVSEWMGTCLLFEFMIESILYARDAWLKEDGVIWPTMAALHLVPCSADKDYRSKVLFWDNAYEFNLSALKSLAVKEFFSKPKYNHILKPEDCLSEPCTILQLDMRTVQISDLETLRGELRFDIRKAGTLHGFTAWFSVHFQSLQEGQPPQVLSTGPFHPTTHWKQTLFMMDDPVPVHTGDVVTGSVVLQRNPVWRRHMSVALSWAVTSRQDPTSQKVGEKVFPIWR
B5: PRKRA (protein, UniProt O75569 1-313, looked up)
Interferon-inducible …: MSQSRHRAEAPPLEREDSGTFSLGKMITAKPGKTPIQVLHEYGMKTKNIPVYECERSDVQIHVPTFTFRVTVGDITCTGEGTSKKLAKHRAAEAAINILKANASICFAVPDPLMPDPSKQPKNQLNPIGSLQELAIHHGWRLPEYTLSQEGGPAHKREYTTICRLESFMETGKGASKKQAKRNAAEKFLAKFSNISPENHISLTNVVGHSLGCTWHSLRNSPGEKINLLKRSLLSIPNTDYIQLLSEIAKEQGFNITYLDIDELSANGQYQCLAELSTSPITVCHGSGISCGNAQSDAAHNALQYLKIIAERK
B6: PRDM8 (protein, UniProt Q9NQV8 1-689, looked up)
PR domain zinc finger protein …: MEDTGIQRGIWDGDAKAVQQCLTDIFTSVYTTCDIPENAIFGPCVLSHTSLYDSIAFIALKSTDKRTVPYIFRVDTSAANGSSEGLMWLRLVQSARDKEEQNLEAYIKNGQLFYRSLRRIAKDEELLVWYGKELTELLLLCPSRSHNKMNGSSPYTCLECSQRFQFEFPYVAHLRFRCPKRLHSADISPQDEQGGGVGTKDHGGGGGGGKDQQQQQQEAPLGPGPKFCKAGPLHHYPSPSPESSNPSAAAGGSSAKPSTDFHNLARELENSRGGSSCSPAQSLSSGSGSGGGGGHQEAELSPDGIATGGGKGKRKFPEEAAEGGGGAGLVGGRGRFVERPLPASKEDLVCTPQQYRASGSYFGLEENGRLFAPPSPETGEAKRSAFVEVKKAARAASLQEEGTADGAGVASEDQDAGGGGGSSTPAAASPVGAEKLLAPRPGGPLPSRLEGGSPARGSAFTSVPQLGSAGSTSGGGGTGAGAAGGAGGGQGAASDERKSAFSQPARSFSQLSPLVLGQKLGALEPCHPADGVGPTRLYPAAADPLAVKLQGAADLNGGCGSLPSGGGGLPKQSPFLYATAFWPKSSAAAAAAAAAAAAGPLQLQLPSALTLLPPSFTSLCLPAQNWCAKCNASFRMTSDLVYHMRSHHKKEYAMEPLVKRRREEKLKCPICNESFRERHHLSRHMTSHN

Test system: HEK293FT cells transfected with TF library
Assay: Screening of TF condensates based on fluorescent puncta
Assay type: cell-based
Conditions: Figure 1B numerical data; TF library screen, one value per transcriptional factor
Outline: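 HEK293FT cells were reverse-transfected with Flag- or GAL4-tagged TF plasmids (1.6 μg/ml, PEI). After 60 h, cells were cultured 12 h with or without glucose, then fixed and immunostained with anti-Flag or anti-GAL4 and Alexa 488 secondaries. Fluorescent puncta were imaged over fifty random fields per well by high-content imaging.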

Molecule | Z score of condensed fraction
B1 | 1.258
B2 | 0.7937
B3 | -0.4468
B4 | 0.936
B5 | 0.8928
B6 | -0.8362
